The supplement of paper PMC5998384

Key:
[1] = tested on: HeLa Kyoto; assay: thermal stability score vs G1/S (z-score of summed log2 fold changes over temperatures); higher = more thermally stable than in G1/S
[2] = tested on: HeLa Kyoto; assay: solubility change mitosis vs G1/S (difference of NP-40 vs SDS log2 ratios) (log2 ratio difference); higher = more soluble in mitosis
[3] = tested on: HeLa Kyoto; assay: solubility in G1/S (NP-40 vs SDS abundance) (log2 ratio); higher = more soluble; conditions: cell cycle stage: G1/S
[4] = tested on: HeLa Kyoto; assay: melting temperature (median over replicates), in situ; higher = more thermally stable
[5] = cell cycle stage: early G1 (4.5 h after nocodazole release)
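For melting temperature (median over replicates), in situ in this document: HeLa Kyoto cells synchronized by double thymidine or nocodazole block, proteins quantified by TMT10plex mass spectrometry, three independent biological replicates.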
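For solubility change mitosis vs G1/S (difference of NP-40 vs SDS log2 ratios) in this document: synchronized HeLa Kyoto cells (double thymidine block for G1/S, nocodazole release for mitosis), protein amounts in NP-40 versus SDS lysates quantified by mass spectrometry, three biological replicates.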
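For solubility in G1/S (NP-40 vs SDS abundance) in this document: HeLa Kyoto cells arrested at G1/S by double thymidine block, proteins quantified by TMT10plex mass spectrometry in mild NP-40 versus SDS extracts, three biological replicates.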
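For thermal stability score vs G1/S (z-score of summed log2 fold changes over temperatures) in this document: synchronized HeLa Kyoto cells, proteins quantified by TMT10plex mass spectrometry, three biological replicates, mitosis taken 0.5 h after nocodazole release, G1/S directly after double thymidine block.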

| Sequence | thermal stability score [1, 5] | thermal stability score ([1]; cell cycle stage: mitosis) | solubility change mitosis (log2) [2] | solubility in G1/S (log2) [3] | melting temperature ([4]; cell cycle stage: G1/S) | melting temperature ([4]; cell cycle stage: mitosis) |
| --- | --- | --- | --- | --- | --- | --- |
| MSGTSSHESFYDSLSDMQEESKNTDFFPGLSAFLSQEEINKSLDLARRAIADSETEDFDSEKEISQIFSTSPASLCEHPSHKETKLGEHASRRPQDNRSTPVQPLAEKQTKSISSPVSKRKPAMSPLLTRPSYIRSLRKAEKRGAKTPSTNVKPKTPHQRKGGPQSQLCDKAANLIEELTSIFKAAKPRNRSPNGESSSPDSGYLSPKNQPSALLSASASQSPMEDQGEMEREVKSPGARHCYQDNQDLAVPHNRKSHPQPHSALHFPAAPRFIQKLRSQEVAEGSRVYLECRVTGNPTPRVRWFCEGKELHNTPDIQIHCEGGDLHTLIIAEAFEDDTGRYTCLATNPSGSDTTSAEVFIEGASSTDSDSESLAFKSRAGAMPQAQKKTTSVSLTIGSSSPKTGVTTAVIQPLSVPVQQVHSPTSYLCRPDGTTTAYFPPVFTKELQNTAVAEGQVVVLECRVRGAPPLQVQWFRQGSEIQDSPDFRILQKKPRSTAEPEEICTLVIAETFPEDAGIFTCSARNDYGSATSTAQLVVTSANTENCSYESMGESNNDHFQHFPPPPPILETSSLELASKKPSEIQQVNNPELGLSRAALQMQFNAAERETNGVHPSRGVNGLINGKANSNKSLPTPAVLLSPTKEPPPLLAKPKLDPLKLQQLQNQIRLEQEAGARQPPPAPRSAPPSPPFPPPPAFPELAACTPPASPEPMSALASRSAPAMQSSGSFNYARPKQFIAAQNLGPASGHGTPASSPSSSSLPSPMSPTPRQFGRAPVPPFAQPFGAEPEAPWGSSSPSPPPPPPPVFSPTAAFPVPDVFPLPPPPPPLPSPGQASHCSSPATRFGHSQTPAAFLSALLPSQPPPAAVNALGLPKGVTPAGFPKKASRTARIASDEEIQGTKDAVIQDLERKLRFKEDLLNNGQPRLTYEERMARRLLGADSATVFNIQEPEEETANQEYKVSSCEQRLISEIEYRLERSPVDESGDEVQYGDVPVENGMAPFFEMKLKHYKIFEGMPVTFTCRVAGNPKPKIYWFKDGKQISPKSDHYTIQRDLDGTCSLHTTASTLDDDGNYTIMAANPQGRISCTGRLMVQAVNQRGRSPRSPSGHPHVRRPRSRSRDSGDENEPIQERFFRPHFLQAPGDLTVQEGKLCRMDCKVSGLPTPDLSWQLDGKPVRPDSAHKMLVRENGVHSLIIEPVTSRDAGIYTCIATNRAGQNSFSLELVVAAKEAHKPPVFIEKLQNTGVADGYPVRLECRVLGVPPPQIFWKKENESLTHSTDRVSMHQDNHGYICLLIQGATKEDAGWYTVSAKNEAGIVSCTARLDVYTQWHQQSQSTKPKKVRPSASRYAALSDQGLDIKAAFQPEANPSHLTLNTALVESEDL [PALLD] | 1.21 | 3.53 | -0.0539 | 0.0775 | 50 °C | 50.5 °C |
| MSHGPSPRLAESPQLSKGSLLTILGSPSPERMGPADSLPPTPPSGTPSPGPPPALPLPPAPALLADGDWESREELRLRELEEARARAAQMEKTMRRWSDCTANWREKWSKVRAERNRAREEVRQLRQRLDALTKELAGARRERQEAQGECEARGRELARLRGARGVADQTRDGPEPEAEREPVRDVGSERPPGSQELELVESLLKSMPEESEDCWEARSLGAGGPRGSSGRQERSRLPWEDTAATEEEASKLTALRLRLDESQKVLLKEREDKLALSRNIEKLEGELSQWKIKYEELSKTKQEMLKQLSILKEAHQDELGRMSEDLEDELGARSSMDRKMAELRGEMERLQAENAAEWGRRERLETEKLGLERENKKLRAQVGDLEEALARRRRQTASALDCDLRASQAALFEKNKELADLKHVHGKLKKQFQEKVAELAHANRRVEQHEAEVKKLRLRVEELKKELAQAEDELDEAHNQARKLQRSLDEQTEQSENLQVQLEHLQSRLRRQQQNAPLFGKIRSARFGTEEAEDGTSDLDEDEDLQIQVA [CCDC102A] | -0.855 | -0.192 | 0.0825 | 0.448 | 50.8 °C | 49.3 °C |
| MSIFPKISLRPEVENYLKEGFMNKEIVTALGKQEAERKFETLLKHLSHPPSFTTVRVNTHLASVQHVKNLLLDELQKQFNGLSVPILQHPDLQDVLLIPVIGPRKNIKKQQCEAIVGAQCGNAVLRGAHVYAPGIVSASQFMKAGDVISVYSDIKGKCKKGAKEFDGTKVFLGNGISELSRKEIFSGLPELKGMGIRMTEPVYLSPSFDSVLPRYLFLQNLPSALVSHVLNPQPGEKILDLCAAPGGKTTHIAALMHDQGEVIALDKIFNKVEKIKQNALLLGLNSIRAFCFDGTKAVKLDMVEDTEGEPPFLPESFDRILLDAPCSGMGQRPNMACTWSVKEVASYQPLQRKLFTAAVQLLKPEGVLVYSTCTITLAENEEQVAWALTKFPCLQLQPQEPQIGGEGMRGAGLSCEQLKQLQRFDPSAVPLPDTDMDSLREARREDMLRLANKDSIGFFIAKFVKCKST [NSUN6] | -0.273 | 0.177 | -0.179 | 0.29 | 51.8 °C | 51.4 °C |
| MSINLTVDIYIYLLSNARSVCGKQRSKQLYFLFSPKHYWRISHISLQRGFHTNIIRCKWTKSEAHSCSKHCYSPSNHGLHIGILKLSTSAPKGLTKVNICMSRIKSTLNSVSKAVFGNQNEMISRLAQFKPSSQILRKVSDSGWLKQKNIKQAIKSLKKYSDKSAEKSPFPEEKSHIIDKEEDIGKRSLFHYTSSITTKFGDSFYFLSNHINSYFKRKEKMSQQKENEHFRDKSELEDKKVEEGKLRSPDPGILAYKPGSESVHTVDKPTSPSAIPDVLQVSTKQSIANFLSRPTEGVQALVGGYIGGLVPKLKYDSKSQSEEQEEPAKTDQAVSKDRNAEEKKRLSLQREKIIARVSIDNRTRALVQALRRTTDPKLCITRVEELTFHLLEFPEGKGVAVKERIIPYLLRLRQIKDETLQAAVREILALIGYVDPVKGRGIRILSIDGGGTRGVVALQTLRKLVELTQKPVHQLFDYICGVSTGAILAFMLGLFHMPLDECEELYRKLGSDVFSQNVIVGTVKMSWSHAFYDSQTWENILKDRMGSALMIETARNPTCPKVAAVSTIVNRGITPKAFVFRNYGHFPGINSHYLGGCQYKMWQAIRASSAAPGYFAEYALGNDLHQDGGLLLNNPSALAMHECKCLWPDVPLECIVSLGTGRYESDVRNTVTYTSLKTKLSNVINSATDTEEVHIMLDGLLPPDTYFRFNPVMCENIPLDESRNEKLDQLQLEGLKYIERNEQKMKKVAKILSQEKTTLQKINDWIKLKTDMYEGLPFFSKL [PNPLA8] | -0.78 | -0.701 | -0.0941 | 0.117 | 53.6 °C | 54 °C |
| MSISSDEVNFLVYRYLQESGFSHSAFTFGIESHISQSNINGALVPPAALISIIQKGLQYVEAEVSINEDGTLFDGRPIESLSLIDAVMPDVVQTRQQAYRDKLAQQQAAAAAAAAAAASQQGSAKNGENTANGEENGAHTIANNHTDMMEVDGDVEIPPNKAVVLRGHESEVFICAWNPVSDLLASGSGDSTARIWNLSENSTSGSTQLVLRHCIREGGQDVPSNKDVTSLDWNSEGTLLATGSYDGFARIWTKDGNLASTLGQHKGPIFALKWNKKGNFILSAGVDKTTIIWDAHTGEAKQQFPFHSAPALDVDWQSNNTFASCSTDMCIHVCKLGQDRPIKTFQGHTNEVNAIKWDPTGNLLASCSDDMTLKIWSMKQDNCVHDLQAHNKEIYTIKWSPTGPGTNNPNANLMLASASFDSTVRLWDVDRGICIHTLTKHQEPVYSVAFSPDGRYLASGSFDKCVHIWNTQTGALVHSYRGTGGIFEVCWNAAGDKVGASASDGSVCVLDLRK [TBL1XR1] | -0.718 | 1.29 | -0.127 | -0.0567 | 52.2 °C | 53.6 °C |
| MSKEERPGREEILECQVMWEPDSKKNTQMDRFRAAVGAACGLALESYDDLYHWSVESYSDFWAEFWKFSGIVFSRVYDEVVDTSKGIADVPEWFKGSRLNYAENLLRHKENDRVALYIAREGKEEIVKVTFEELRQEVALFAAAMRKMGVKKGDRVVGYLPNSEHAVEAMLAAASIGAIWSSTSPDFGVNGVLDRFSQIQPKLIFSVEAVVYNGKEHNHMEKLQQVVKGLPDLKKVVVIPYVSSRENIDLSKIPNSVFLDDFLATGTSEQAPQLEFEQLPFSHPLFIMFSSGTTGAPKCMVHSAGGTLIQHLKEHLLHGNMTSSDILLCYTTVGWMMWNWMVSLLATGAAMVLYDGSPLVPTPNVLWDLVDRIGITVLVTGAKWLSVLEEKAMKPVETHSLQMLHTILSTGSPLKAQSYEYVYRCIKSSILLGSISGGTDIISCFMGHNFSLPVYKGEIQARNLGMAVEAWNEEGKAVWGESGELVCTKPIPCQPTHFWNDENGNKYRKAYFSKFPGIWAHGDYCRINPKTGGIVMLGRSDGTLNPNGVRFGSSEIYNIVESFEEVEDSLCVPQYNKYREERVILFLKMASGHAFQPDLVKRIRDAIRMGLSARHVPSLILETKGIPYTLNGKKVEVAVKQIIAGKAVEQGGAFSNPETLDLYRDIPELQGF [AACS] | 0.491 | 1.92 | -0.129 | 0.0299 | 48.5 °C | 48 °C |
| MSKLKVIPEKSLTNNSRIVGLLAQLEKINAEPSESDTARYVTSKILHLAQSQEKTRREMTAKGSTGMEILLSTLENTKDLQTTLNILSILVELVSAGGGRRVSFLVTKGGSQILLQLLMNASKESPPHEDLMVQIHSILAKIGPKDKKFGVKARINGALNITLNLVKQNLQNHRLVLPCLQLLRVYSANSVNSVSLGKNGVVELMFKIIGPFSKKNSSLIKVALDTLAALLKSKTNARRAVDRGYVQVLLTIYVDWHRHDNRHRNMLIRKGILQSLKSVTNIKLGRKAFIDANGMKILYNTSQECLAVRTLDPLVNTSSLIMRKCFPKNRLPLPTIKSSFHFQLPVIPVTGPVAQLYSLPPEVDDVVDESDDNDDIDVEAENETENEDDLDQNFKNDDIETDINKLKPQQEPGRTIEDLKMYEHLFPELVDDFQDYDLISKEPKPFVFEGKVRGPIVVPTAGEETSGNSGNLRKVVMKENISSKGDEGEKKSTFMDLAKEDIKDNDRTLQQQPGDQNRTISSVHGLNNDIVKALDRITLQNIPSQTAPGFTAEMKKDCSLPLTVLTCAKACPHMATCGNVLFEGRTVQLGKLCCTGVETEDDEDTESNSSVEQASVEVPDGPTLHDPDLYIEIVKNTKSVPEYSEVAYPDYFGHIPPPFKEPILERPYGVQRTKIAQDIERLIHQSDIIDRVVYDLDNPNYTIPEEGDILKFNSKFESGNLRKVIQIRKNEYDLILNSDINSNHYHQWFYFEVSGMRPGVAYRFNIINCEKSNSQFNYGMQPLMYSVQEALNARPWWIRMGTDICYYKNHFSRSSVAAGGQKGKSYYTITFTVNFPHKDDVCYFAYHYPYTYSTLQMHLQKLESAHNPQQIYFRKDVLCETLSGNSCPLVTITAMPESNYYEHICHFRNRPYVFLSARVHPGETNASWVMKGTLEYLMSNNPTAQSLRESYIFKIVPMLNPDGVINGNHRCSLSGEDLNRQWQSPSPDLHPTIYHAKGLLQYLAAVKRLPLVYCDYHGHSRKKNVFMYGCSIKETVWHTNDNATSCDVVEDTGYRTLPKILSHIAPAFCMSSCSFVVEKSKESTARVVVWREIGVQRSYTMESTLCGCDQGKYKGLQIGTRELEEMGAKFCVGLLRLKRLTSPLEYNLPSSLLDFENDLIESSCKVTSPTTYVLDEDEPRFLEEVDYSAESNDELDIELAENVGDYEPSAQEEVLSDSELSRTYLP [AGTPBP1] | -0.000956 | 0.14 | -0.0731 | -0.204 | 50.2 °C | 50.3 °C |
